Experiments:
WOX11-MBP [1] = target: T1, WOX11-MBP (Oryza sativa (rice; cultivar of the …, UniProt Q0D3I7 1-262); assay: EMSA; LightShift Chemiluminescent EMSA Kit (Thermo 20148), manufacturer's instructions; buffer, salt, pH and temperature not stated; details: protein: recombinant; tags: MBP; label: 5' biotin; blunt
T1 sequence: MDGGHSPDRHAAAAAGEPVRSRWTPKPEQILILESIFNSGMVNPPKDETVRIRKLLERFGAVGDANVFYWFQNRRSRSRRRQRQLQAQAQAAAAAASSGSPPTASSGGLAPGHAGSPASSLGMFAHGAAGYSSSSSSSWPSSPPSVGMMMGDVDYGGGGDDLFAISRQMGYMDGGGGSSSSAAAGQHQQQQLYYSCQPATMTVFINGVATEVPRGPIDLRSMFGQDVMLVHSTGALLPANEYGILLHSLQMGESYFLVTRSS

WOX11-MBP [2] = target: T1, WOX11-MBP; assay: competition EMSA; unlabelled competitor against biotin hot probe N1; LightShift Chemiluminescent EMSA Kit (Thermo 20148), manufacturer's instructions; buffer, salt, pH and temperature not stated; details: protein: recombinant; tags: MBP; blunt

B1: pOsEXPB7 hot probe (dsDNA)
DNA 1: AGGGATCGATCGAAATTAATGGCGGGCAGGAGCAGGA
DNA 2: TCCTGCTCCTGCCCGCCATTAATTTCGATCGATCCCT
B1: binds (WOX11-MBP [1]).

B2: pOsEXPB7 mutant probe (dsDNA)
DNA 1: AGGGATCGATCGAAATCCATGGCGGGCAGGAGCAGGA
DNA 2: TCCTGCTCCTGCCCGCCATGGATTTCGATCGATCCCT
B2: no binding (WOX11-MBP [1]).

B3: pOsEXPB7 cold probe (dsDNA)
DNA 1: AGGGATCGATCGAAATTAATGGCGGGCAGGAGCAGGA
DNA 2: TCCTGCTCCTGCCCGCCATTAATTTCGATCGATCCCT
B3: binds (WOX11-MBP [2]).
